The target of test [1] is human CD81 protein (human) (UniProt P60033). Briefly: cell-based or functional assay.
For test [2] the target is unchanged. The test is described as follows: cell-based or functional assay. This is another data set of the same source.
Another test concerns the target T1, Ocln1 (human).
T1 construct: has a cysteine and can form a dimer, so the ELISA was also run under acidic conditions (2 N HCl); also called Ocln1 peptide
T1 peptide: ALCNQFYTPA
Briefly: ELISA on coated peptide, acidic conditions (2 N HCl), HRP anti-mouse IgG. The text has this: (§1) Accordingly, Ocln1 consisting of the amino acid sequence represented by SEQ ID NO: 6 ([…]) by the truncation of 7 residues from the […] side of the amino acid sequence represented by SEQ ID NO: 7, Ocln2 consisting of the amino acid sequence represented by SEQ ID NO: 11 ([…]) by the truncation of 7 residues from the 5′-terminal side thereof, and Ocln3 consisting of the amino acid sequence represented by SEQ ID NO: 12 ([…]) by the truncation of 3 to 4 residues from both terminal sides were prepared as antigenic peptides (FIG. 11A). KLH-Ocln peptide (1 μg/well) was used as a positive control antigen.
(§2) Each antigenic peptide was added at 25, 50, 100, and 500 μg/well to an antigen sensitization microplate (Nunc/Thermo Fisher Scientific Inc.) and incubated overnight at room temperature. After blocking with 5% BSA/PBS/0.09% NaN₃ at 37° C. for 2 hours, the 67-2 antibody or normal mouse IgG was added thereto and incubated at room temperature for 1 hour. Ocln1 has a cysteine residue in the sequence and is therefore capable of forming a dimer. Therefore, the analysis was also conducted under acidic conditions (2 N HCl). […] The absorbance at 450 nm/655 nm was measured using a microplate reader. […]
For orientation: ELISA stands for enzyme-linked immunosorbent assay.

For test [3], the target named is T2, antigenic occludin peptide of SEQ ID NO: 7 (positions 214 to 230 of human occludin, second extracellular … (human, also: KLH carrier linked at N-terminus for immunisation, ELISA form not given here)).
T2 construct: also called the antigen; antigenic peptide
T2 peptide: ALCNQFYTPAATGLYVD
Briefly: ELISA of subclone culture supernatants on the antigen.

For a further test, the target named is T3, Ocln3 (human).
T3 construct: also called Ocln3 peptide
T3 peptide: QFYTPAATG
The test is described as follows: ELISA on coated peptide.
From the text: as §1, §2

The record followed here is patent publication US20180282407A1 (FUKUSHIMA MEDICAL UNIVERSITY, published 2018).

Where two headings read alike, the source gives them in different places. Ends that are not written are not given here.

Chain of human CD81 protein (human) (P60033 whole entry): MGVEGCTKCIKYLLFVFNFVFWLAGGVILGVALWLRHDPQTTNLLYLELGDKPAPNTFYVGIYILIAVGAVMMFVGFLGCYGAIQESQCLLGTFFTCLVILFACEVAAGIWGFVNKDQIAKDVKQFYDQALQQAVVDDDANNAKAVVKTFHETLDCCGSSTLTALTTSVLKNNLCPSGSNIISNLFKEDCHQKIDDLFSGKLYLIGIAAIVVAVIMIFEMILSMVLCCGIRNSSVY

In test [1], “anti-human CD81 antibody (JS-81 clone; BD Pharmingen)” displayed an infection inhibition rate, HCVpv 9-3, Huh7.5.1 monolayer culture (luciferase) of 98% and an infection inhibition rate, HCVpv con1, Huh7.5.1 monolayer culture (luciferase) of 99%. Besides, in test [2], the infection inhibition rate, HCVpv H77, Huh7.5.1 monolayer culture (luciferase) turned out to be 99.1% and the infection inhibition rate, HCVpv con1, Huh7.5.1 monolayer culture (luciferase) worked out at 99.8%.

B1: mouse anti-human occludin monoclonal antibody clone 67-2 (antibody, IgG1, V domains shown)
VH: EVQLQQSGPELVKPGASVKISCKASGYTFTDYIMDWVKQSHGKSLEWIGYIYPNNGGTGYNQKFKSKATLTIDKSSSTAYMELHSLTSEDSAVYYCAREDGDYGYFDVWGAGTTVTVSS
VL: QAVVTQESALTTSPGGTVILTCRSSTGAVTTSNYANWVQEKPDHLFTGLIGGTSNRAPGVPVRFSGSLIGDKAALTITGAQTEDDAMYFCALWYSTHYVFGGGTKVTVLG
notes: Mouse antibody from hybridoma C67-2; also called 67-2 antibody; anti-occludin antibody 67-2
As to B1, the binding result in the test with Ocln1 is reported as “binds”; in test [3], “binds”; with Ocln3 it was “no binding”.
